The data set has as its target AhR;ARNT (mouse (C57BL/6);mouse (C57BL/6), UniProt P30561;P53762 1-848;1-791, |). Description: EMSA.

Sequence of AhR;ARNT (P30561 whole entry, chain 1 of 2): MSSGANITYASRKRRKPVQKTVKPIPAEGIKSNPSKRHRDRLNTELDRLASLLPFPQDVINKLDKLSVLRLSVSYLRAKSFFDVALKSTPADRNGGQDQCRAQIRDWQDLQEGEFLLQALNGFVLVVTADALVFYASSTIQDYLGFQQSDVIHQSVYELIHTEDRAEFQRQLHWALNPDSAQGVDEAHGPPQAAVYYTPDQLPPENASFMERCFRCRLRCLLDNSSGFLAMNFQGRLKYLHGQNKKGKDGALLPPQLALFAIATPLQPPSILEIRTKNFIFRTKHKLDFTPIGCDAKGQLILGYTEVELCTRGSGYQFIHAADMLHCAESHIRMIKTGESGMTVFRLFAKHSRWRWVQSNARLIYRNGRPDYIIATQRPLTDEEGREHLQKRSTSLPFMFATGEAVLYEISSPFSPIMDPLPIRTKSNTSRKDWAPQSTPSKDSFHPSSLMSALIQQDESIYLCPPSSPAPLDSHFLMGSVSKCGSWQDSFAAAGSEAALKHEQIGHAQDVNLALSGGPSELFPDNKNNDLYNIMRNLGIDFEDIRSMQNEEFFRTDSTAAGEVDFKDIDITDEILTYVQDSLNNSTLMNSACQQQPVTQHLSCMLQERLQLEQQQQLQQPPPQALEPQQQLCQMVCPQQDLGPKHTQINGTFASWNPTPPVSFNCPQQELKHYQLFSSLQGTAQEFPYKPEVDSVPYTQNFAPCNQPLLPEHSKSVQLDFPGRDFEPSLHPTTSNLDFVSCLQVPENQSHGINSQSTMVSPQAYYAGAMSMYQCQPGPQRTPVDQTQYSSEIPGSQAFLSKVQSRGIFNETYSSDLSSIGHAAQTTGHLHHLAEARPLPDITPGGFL
Sequence of AhR;ARNT (P53762 whole entry, chain 2 of 2): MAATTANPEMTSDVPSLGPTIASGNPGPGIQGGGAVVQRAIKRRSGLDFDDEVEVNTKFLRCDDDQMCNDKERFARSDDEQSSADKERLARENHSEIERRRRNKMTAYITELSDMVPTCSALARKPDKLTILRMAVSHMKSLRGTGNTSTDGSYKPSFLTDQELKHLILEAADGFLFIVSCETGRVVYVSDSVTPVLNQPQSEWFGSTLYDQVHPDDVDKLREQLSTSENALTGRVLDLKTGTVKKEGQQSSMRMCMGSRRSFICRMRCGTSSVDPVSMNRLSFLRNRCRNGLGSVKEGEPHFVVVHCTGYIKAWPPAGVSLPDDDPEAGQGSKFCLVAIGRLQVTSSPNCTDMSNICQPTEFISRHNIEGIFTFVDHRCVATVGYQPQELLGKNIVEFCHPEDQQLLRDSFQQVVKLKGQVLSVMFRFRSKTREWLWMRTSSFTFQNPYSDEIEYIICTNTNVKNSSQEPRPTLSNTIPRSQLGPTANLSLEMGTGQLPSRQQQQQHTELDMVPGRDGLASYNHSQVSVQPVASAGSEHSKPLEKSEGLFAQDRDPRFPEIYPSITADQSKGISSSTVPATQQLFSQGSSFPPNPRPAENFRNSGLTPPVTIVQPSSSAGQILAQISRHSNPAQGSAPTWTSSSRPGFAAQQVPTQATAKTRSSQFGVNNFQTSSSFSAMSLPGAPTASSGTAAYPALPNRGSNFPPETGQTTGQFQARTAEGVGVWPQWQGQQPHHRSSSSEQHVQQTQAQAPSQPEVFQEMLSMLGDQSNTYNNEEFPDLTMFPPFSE

B1: Bax DRE-like (dsDNA)
DNA 1: GATCCAGAAAGCCGGGCGTGGTGGCGCACGCCTTTAATCCCA
DNA 2: GATCTGGGATTAAAGGCGTGCGCCACCACGCCCGGCTTTCTG
In the case of B1, the binding result was “no binding”.

Source of the values: article PMC3875388.
